The data set concerns the molecule itself. Kind of data set: cross-linking; purified complex from the major SEC peak at 0.5 mg/ml in 50 mM HEPES pH 7.5, 150 mM NaCl, 0.1% glutaraldehyde for 30 minutes at room temperature, quenched with tris; SEC and SDS-PAGE.

Two proteins from article doi:10.1101/2023.04.01.535202, “Three small partner proteins facilitate the type VII-dependent secretion export of an antibacterial nuclease” (bioRxiv, 2023) can be followed below.

B1: EsaDEG complex (complex)
chain 1: MTKDIEYLTADYDNEKSSIQSVIDAIEGQDFLDVDTTMDDAVSDVSSLDEDGAISLTSSVVGPQGSKLMGYYQNELYDYASQLDSKMKEIIDTPFIEDIDKAFKGITNVKLENILIKNGGGHGRDTYGASGKIAKGDAKKSDSDVYSIDEILKSDQEFVKVIDQHYKEMKKEDKKLSKSDFEKMMTQGASCDYMTVAEAEELEEQKKKEEAIEIAALAGMVVLSCINPVAGAVAIGAYSAYSAANAATGKNIVTGRKLSKEERIMEGLSLIPLPGMGFLKGAGKSLMKLGFKGGEKFAVKTGLQKTMQQAVSRISPKMGMMKNSVLNQSRNFAQNTHVGQMLSNMRGQATHTVQQSRNWIGQQAQNVKRIVNNGLDKEIAHPFKQQLAPAGMGGIKFAETTTLRNMGQNIKRAVTPQNHVTHGPKDSMVRSEGKHSISSHEMNSSKYVESPNYTKVEFGEHYARLRPKKLKANIEYTTPTGHIYRTDHKGRIKEVYVDNLSLKDGDRNSHAQRTVGGEDRLPDDDGGALIARMFGGSKDIDNLVAQSKFINRPFKEKGHWYNLEKEWQEFLNSGKEVKNIKMEVKYSGNSQRPTIFKVEYEINGERNIRRILNK
chain 2: MKDVKRIDYFSYEELTILGGSKLPLVNFELFDPSNFEEAKAALIEKELVTENDKLTDAGFKVATLVREYISAIVNIRINDMYFAPFSYEKDEYILLSRFKNNGFQIRIINKDIAWWSIVQSYPLLMRQEKSNDWDFKQIDDETLENLNNESIDTIGRVLEIEIYNHQGDPQQSLYNIYEQNDLLFIRYPLKDKVLNVHIGVINTFIRELFGFDTDENHINKAEE
chain 3: MTFEEKLSKIYNEIANEISSMIPVEWEKVYTMAYIDDGGGEVFFNYTKPGSDDLNYYTNIPKEYNISVQVFDDLWMDLYDLFEELRDLFKEEDLEPWTSCEFDFTREGELKVSFDYIDWINSEFGQIGRQNYYKYRKFGILPETEYEINKVKEIEQYIKELEE
notes: EsaD nuclease toxin of S. aureus, as m1; EsaE of S. aureus, as m2; EsaG of S. aureus, as m3; Cross-linked with glutaraldehyde for the experiment on dimers-of-trimers and for cryo-EM; also called EsaDEG trimer; not shown: His6, C-terminal, kept; copies: + +
Take B1: the “stoichiometry N” value amounted to 2.

B2: EsaDEG-EsxBCD complex (complex)
chain 1: B1 chain 1
chain 2: B1 chain 2
chain 3: B1 chain 3
chain 4: MGGYKGIKADGGKVDQAKQLAAKTAKDIEACQKQTQQLAEYIEGSDWEGQFANKVKDVLLIMAKFQEELVQPMADHQKAIDNLSQNLAKYDTLSIKQGLDRVNP
chain 5: MNFNDIETMVKSKFKDIKKHAEEIAHEIEVRSGYLRKAEQYKRLEFNLSFALDDIESTAKDVQTAKSSANKDSVTVKGKAPNTLYIEKRNLMKQKLEMLGEDIDKNKESLQKAKEIAGEKASEYFNKAMN
chain 6: MTLSGKISVKAETIAHVVKELESISQKYDEIAQNFGKIAQLNYYSSEKAAHSMENGYSSAATVISGLKGPLSTLGGGVMNSAQKFFEADEHWGTEFAKLYYNIEG
notes: EsaD nuclease toxin of S. aureus, as m1; EsaE of S. aureus, as m2; EsaG of S. aureus, as m3; EsxB of S. aureus, as m4; EsxC of S. aureus, as m5; EsxD of S. aureus, as m6; Cross-linked with glutaraldehyde for the experiment on dimers-of-hexamers and for cryo-EM; also called EsaDEG-EsxBCD hexamer; EsxBCD-EsaDEG complex; not shown: His6, C-terminal, kept; twin-strep, C-terminal, kept; copies: + + + …
For B2, the “stoichiometry N” value is 2.

The term stoichiometry N denotes the number of molecules, sites or subunits per partner or assembly.
